Laboratory results taken from article PMC5737849, “Structural study of the Fox-1 RRM protein hydration reveals a role for key water molecules in RRM-RNA recognition”.
Substitutions are numbered along the chain they refer to.

Legend:
Fox-1 RRM S155A = target: T1, Fox-1 RRM S155A (UniProt Q9NWB1 109-208, S155A); assay: NMR (1H-1H TOCSY); 1:1 ratio, 20 mM NaCl, pH 6.5, 40 C; switchSENSE: 10 mM Tris-HCl pH 7.4, 140 mM NaCl, 0.05% Tween20, 25 C; NMR: 10 mM phosphate pH 6.5, 20 mM NaCl, 40 C; conditions: protein: recombinant; tags: N-terminal 6xHis (pET28a); single strand
T1 sequence: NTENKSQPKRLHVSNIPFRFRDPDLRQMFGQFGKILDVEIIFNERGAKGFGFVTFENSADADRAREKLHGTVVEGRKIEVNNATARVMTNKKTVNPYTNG

Fox-1 RRM WT = target: T2, Fox-1 RRM WT (UniProt Q9NWB1 109-208); assay: as above; conditions: protein: recombinant; tags: N-terminal 6xHis (pET28a); single strand
T2 sequence: T1 sequence with A47S

B1: 5'-UGCAUGU-3' RNA oligonucleotide (NMR) (ssRNA)
RNA: UGCAUGU
Fox-1 RRM S155A
  binding result: binds
Fox-1 RRM WT
  binding result: binds
